Assays:
IL10 receptor = IL10 receptor (UniProt Q13651); test: cell-based or functional assay
IL4 (type II) receptor = IL4 (type II) receptor (UniProt P24394); test: cell-based or functional assay
Chain of IL4 (type II) receptor (P24394 26-825 limits assumed, chain 1 of 2): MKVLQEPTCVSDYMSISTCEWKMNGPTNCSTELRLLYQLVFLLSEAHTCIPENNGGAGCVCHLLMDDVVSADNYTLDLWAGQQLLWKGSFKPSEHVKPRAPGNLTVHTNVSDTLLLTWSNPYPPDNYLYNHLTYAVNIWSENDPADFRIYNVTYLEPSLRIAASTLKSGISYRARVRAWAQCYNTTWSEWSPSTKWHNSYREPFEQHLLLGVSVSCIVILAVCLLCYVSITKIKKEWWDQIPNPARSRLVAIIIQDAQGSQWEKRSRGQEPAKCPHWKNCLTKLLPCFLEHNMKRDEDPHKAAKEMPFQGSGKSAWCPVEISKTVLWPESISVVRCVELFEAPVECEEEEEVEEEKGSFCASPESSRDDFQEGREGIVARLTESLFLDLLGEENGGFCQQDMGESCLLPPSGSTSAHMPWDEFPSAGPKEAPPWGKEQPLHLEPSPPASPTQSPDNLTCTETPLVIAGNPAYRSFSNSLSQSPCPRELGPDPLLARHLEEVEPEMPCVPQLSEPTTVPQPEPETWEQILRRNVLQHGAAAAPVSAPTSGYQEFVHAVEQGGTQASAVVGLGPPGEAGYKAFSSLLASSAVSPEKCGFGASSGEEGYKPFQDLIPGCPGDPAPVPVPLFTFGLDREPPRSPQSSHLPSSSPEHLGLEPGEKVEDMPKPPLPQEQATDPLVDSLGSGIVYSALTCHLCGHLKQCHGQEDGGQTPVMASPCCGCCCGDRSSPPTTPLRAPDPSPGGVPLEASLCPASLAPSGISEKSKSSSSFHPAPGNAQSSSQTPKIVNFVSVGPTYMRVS
Chain of IL4 (type II) receptor (P78552 22-427 limits assumed, chain 2 of 2, further chain): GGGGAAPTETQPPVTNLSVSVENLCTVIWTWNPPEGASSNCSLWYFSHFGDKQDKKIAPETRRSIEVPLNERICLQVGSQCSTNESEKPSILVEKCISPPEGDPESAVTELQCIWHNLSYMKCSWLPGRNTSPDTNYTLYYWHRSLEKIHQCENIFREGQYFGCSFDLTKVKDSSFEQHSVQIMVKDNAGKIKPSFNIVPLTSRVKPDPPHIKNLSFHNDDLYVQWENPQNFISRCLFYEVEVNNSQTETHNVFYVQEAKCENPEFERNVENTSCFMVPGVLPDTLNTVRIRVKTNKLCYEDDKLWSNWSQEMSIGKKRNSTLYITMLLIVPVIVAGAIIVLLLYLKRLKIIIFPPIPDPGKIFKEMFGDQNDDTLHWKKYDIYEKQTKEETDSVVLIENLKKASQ

Chain of IL10 receptor (Q13651 22-578 limits assumed, chain 1 of 2): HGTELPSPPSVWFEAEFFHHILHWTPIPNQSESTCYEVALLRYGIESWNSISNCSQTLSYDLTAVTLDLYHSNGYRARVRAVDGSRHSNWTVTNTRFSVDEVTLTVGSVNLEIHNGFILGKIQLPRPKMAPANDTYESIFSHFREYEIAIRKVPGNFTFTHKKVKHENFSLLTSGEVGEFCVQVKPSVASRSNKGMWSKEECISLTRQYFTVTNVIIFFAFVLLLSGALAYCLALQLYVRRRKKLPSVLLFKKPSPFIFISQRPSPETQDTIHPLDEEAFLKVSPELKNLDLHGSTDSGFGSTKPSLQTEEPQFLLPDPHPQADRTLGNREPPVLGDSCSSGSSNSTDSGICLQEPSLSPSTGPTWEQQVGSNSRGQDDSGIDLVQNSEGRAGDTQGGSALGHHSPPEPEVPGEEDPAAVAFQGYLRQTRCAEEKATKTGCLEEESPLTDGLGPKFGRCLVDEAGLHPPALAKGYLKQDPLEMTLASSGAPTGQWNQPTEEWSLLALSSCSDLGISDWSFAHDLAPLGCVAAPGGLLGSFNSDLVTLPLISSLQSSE
Chain of IL10 receptor (Q08334 20-325 limits assumed, chain 2 of 2, further chain): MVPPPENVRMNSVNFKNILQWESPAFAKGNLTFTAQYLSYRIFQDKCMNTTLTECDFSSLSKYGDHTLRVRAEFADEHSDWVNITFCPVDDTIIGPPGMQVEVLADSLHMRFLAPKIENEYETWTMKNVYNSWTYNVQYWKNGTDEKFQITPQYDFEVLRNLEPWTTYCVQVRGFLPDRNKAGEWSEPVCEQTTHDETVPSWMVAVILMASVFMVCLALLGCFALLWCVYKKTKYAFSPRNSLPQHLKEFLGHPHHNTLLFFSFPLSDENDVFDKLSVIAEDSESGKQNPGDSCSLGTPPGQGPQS

Row | HEK-Blue IL10 EC50 (STAT-3 mediated SEAP expression) (IL10 receptor) [pM] | HEK-Blue IL4/13 EC50 (STAT6-induced SEAP expression) (IL4 (type II) receptor) [pM] | Substance
1 | 26.4 |  | IL10 (from UniProt P22301 19-178) (ligand)
2 |  | 33 | IL13 (from UniProt P35225 33-146) (ligand)
